Results: patent US20140142049A1, “PEGYLATED APELIN AND USES THEREOF” (priority 2011, published 2014)

T1: APJ receptor (Homo sapiens, UniProt P35414)
T1 construct: purchased Perkin Elmer, Waltham, Mass; host or cells: transfected CHO cells (membrane fraction)
T1 sequence (P35414 1-380): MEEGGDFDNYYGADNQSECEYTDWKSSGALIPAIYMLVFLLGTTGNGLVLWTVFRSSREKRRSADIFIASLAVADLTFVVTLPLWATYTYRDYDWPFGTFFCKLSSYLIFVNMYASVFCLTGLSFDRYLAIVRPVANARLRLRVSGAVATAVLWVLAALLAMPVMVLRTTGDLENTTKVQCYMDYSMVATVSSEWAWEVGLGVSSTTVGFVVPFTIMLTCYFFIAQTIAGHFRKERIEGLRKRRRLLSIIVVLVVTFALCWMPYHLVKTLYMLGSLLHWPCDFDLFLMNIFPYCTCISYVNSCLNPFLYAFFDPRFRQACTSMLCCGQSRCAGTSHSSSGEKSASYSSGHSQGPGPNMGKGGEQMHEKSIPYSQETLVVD

T2: APJ receptor in a membrane fraction from transfected CHO cells (Perkin Elmer) (UniProt P35414 1-380, limits assumed)
T2 construct: whole, on cells; The receptor stood in a membrane fraction of transfected CHO cells, not on whole cells
T2 sequence (looked up): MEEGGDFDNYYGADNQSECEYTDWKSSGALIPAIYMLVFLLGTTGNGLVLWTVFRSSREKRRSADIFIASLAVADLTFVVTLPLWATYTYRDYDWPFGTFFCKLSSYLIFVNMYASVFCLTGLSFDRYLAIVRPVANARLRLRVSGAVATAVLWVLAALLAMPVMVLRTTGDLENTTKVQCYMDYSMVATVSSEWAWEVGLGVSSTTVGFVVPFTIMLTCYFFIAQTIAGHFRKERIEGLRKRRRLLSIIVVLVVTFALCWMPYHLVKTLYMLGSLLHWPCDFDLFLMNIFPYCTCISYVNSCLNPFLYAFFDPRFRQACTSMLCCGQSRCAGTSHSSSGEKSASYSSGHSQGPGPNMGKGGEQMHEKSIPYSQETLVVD


Tests used:
[1] = molecular target: T1, APJ receptor; experiment: APJ receptor binding assay (competitive radioligand binding); settings: negative control
Method: The binding was performed using competition with ^125I-labelled [Glp^65, Nle^75, Tyr^77]-apelin13 probe for binding to the APJ receptor in a membrane fraction from the transfected CHO cells (Perkin Elmer, Waltham, Mass.). Serially diluted peptide was incubated with membrane and probe for 1 hour at room temperature. The mixture was then filtered over a 1.2 um glass fiber type C filterplate (Millipore Corp., Billerica, Mass.), preblocked with 0.5% polyethylenimine. The plate was washed 4 times with 200 ul ice cold binding buffer and then another 4 times with ice cold 50 mM Tris-HCl, pH7.4, dried and counted with scintillation fluid. The data was analyzed with Graphpad Prism 4 (GraphPad Software, Inc, La Jolla, Calif.) using nonlinear regression.

[2] = molecular target: T2, APJ receptor in a membrane fraction …; experiment: competitive radioligand binding, 125I-[Glp65, Nle75, Tyr77]-apelin13 probe, APJ membranes from transfected CHO cells
Method: The mixture was then filtered over a 1.2 um glass fiber type C filterplate (Millipore Corp., Billerica, Mass.), preblocked with 0.5% polyethylenimine. The plate was washed 4 times with 200 ul ice cold binding buffer and then another 4 times with ice cold 50 mM Tris-HCl, pH7.4, dried and counted with scintillation fluid. The data was analyzed with Graphpad Prism 4 (GraphPad Software, Inc, La Jolla, Calif.) using nonlinear regression.

Row | binding to APJ receptor (in words) [1] | binding result [2] | Molecule
1 | no binding |  | α-MSH: 13 amino acid α-MSH peptide negative control
2 |  | no binding | SYSMEHFRWGKPV (peptide, UniProt P01189 138-150, looked up, also called negative control) [13 amino acid α-MSH peptide]
